{"source": "paper PMC9407390", "about": "(Proceedings of the National Academy of Sciences of the …, 2022)", "proteins": {"B1": {"name": "soluble C terminus (soluble domain, residues 343 to 882) of Medicago truncatula DMI1 (domain or fragment)", "chain": "SEVIERNHVLILGWSDKLGSLLKQLAIANKSVGGGVIVVLAEKEKEEMEMDIAKLEFDFMGTSVICRSGSPLILADLKKVSVSKARAIIVLAADENADQSDARALRVVLSLAGVKEGLRGHVVVEMSDLDNEPLVKLVGGELIETVVAHDVIGRLMIQCALQPGLAQIWEDILGFENAEFYIKRWPELDDLLFKDILISFPDAIPCGVKVAADGGKIVINPDDNYVLRDGDEVLVIAEDDDTYAPGPLPEVRKGYFPRIRDPPKYPEKILFCGWRRDIDDMIMVLEAFLAPGSELWMFNEVPEKERERKLAAGELDVFGLENIKLVHREGNAVIRRHLESLPLETFDSILILADESVEDSVAHSDSRSLATLLLIRDIQSRRLPYRDTKSTSLRLSGFSHNSWIREMQQASDKSIIISEILDSRTRNLVSVSRISDYVLSNELVSMALAMVAEDKQINRVLEELFAEEGNEMCIKPAEFYLFDQEELCFYDIMIRGRTRKEIVIGYRLANQERAIINPSEKSVPRKWSLDDVFVVLASGE"}}, "target": "the molecule itself", "assay": "crystal structure"}
{"protein": "B1", "values": [{"measurement": "stoichiometry N", "result": 4}]}
